Test results published in paper PMC4495445.

B1: Gda1p: N41D (protein)
parent chain: MAPIFRNYRFAIGAFAVIMLILLIKTSSIGPPSIARTVTPNASIPKTPEDISILPVNDEPGYLQDSKTEQNYPELADAVKSQTSQTCSEEHKYVIMIDAGSTGSRVHIYKFDVCTSPPTLLDEKFDMLEPGLSSFDTDSVGAANSLDPLLKVAMNYVPIKARSCTPVAVKATAGLRLLGDAKSSKILSAVRDHLEKDYPFPVVEGDGVSIMGGDEEGVFAWITTNYLLGNIGANGPKLPTAAVFDLGGGSTQIVFEPTFPINEKMVDGEHKFDLKFGDENYTLYQFSHLGYGLKEGRNKVNSVLVENALKDGKILKGDNTKTHQLSSPCLPPKVNATNEKVTLESKETYTIDFIGPDEPSGAQCRFLTDEILNKDAQCQSPPCSFNGVHQPSLVRTFKESNDIYIFSYFYDRTRPLGMPLSFTLNELNDLARIVCKGEETWNSVFSGIAGSLDELESDSHFCLDLSFQVSLLHTGYDIPLQRELRTGKKIANKEIGWCLGASLPLLKADNWKCKIQSA
B2: Gda1p: N280D (protein)
parent chain: MAPIFRNYRFAIGAFAVIMLILLIKTSSIGPPSIARTVTPNASIPKTPEDISILPVNDEPGYLQDSKTEQNYPELADAVKSQTSQTCSEEHKYVIMIDAGSTGSRVHIYKFDVCTSPPTLLDEKFDMLEPGLSSFDTDSVGAANSLDPLLKVAMNYVPIKARSCTPVAVKATAGLRLLGDAKSSKILSAVRDHLEKDYPFPVVEGDGVSIMGGDEEGVFAWITTNYLLGNIGANGPKLPTAAVFDLGGGSTQIVFEPTFPINEKMVDGEHKFDLKFGDENYTLYQFSHLGYGLKEGRNKVNSVLVENALKDGKILKGDNTKTHQLSSPCLPPKVNATNEKVTLESKETYTIDFIGPDEPSGAQCRFLTDEILNKDAQCQSPPCSFNGVHQPSLVRTFKESNDIYIFSYFYDRTRPLGMPLSFTLNELNDLARIVCKGEETWNSVFSGIAGSLDELESDSHFCLDLSFQVSLLHTGYDIPLQRELRTGKKIANKEIGWCLGASLPLLKADNWKCKIQSA
B3: Gda1p: N41D/N280D/N335D (protein)
parent chain: MAPIFRNYRFAIGAFAVIMLILLIKTSSIGPPSIARTVTPNASIPKTPEDISILPVNDEPGYLQDSKTEQNYPELADAVKSQTSQTCSEEHKYVIMIDAGSTGSRVHIYKFDVCTSPPTLLDEKFDMLEPGLSSFDTDSVGAANSLDPLLKVAMNYVPIKARSCTPVAVKATAGLRLLGDAKSSKILSAVRDHLEKDYPFPVVEGDGVSIMGGDEEGVFAWITTNYLLGNIGANGPKLPTAAVFDLGGGSTQIVFEPTFPINEKMVDGEHKFDLKFGDENYTLYQFSHLGYGLKEGRNKVNSVLVENALKDGKILKGDNTKTHQLSSPCLPPKVNATNEKVTLESKETYTIDFIGPDEPSGAQCRFLTDEILNKDAQCQSPPCSFNGVHQPSLVRTFKESNDIYIFSYFYDRTRPLGMPLSFTLNELNDLARIVCKGEETWNSVFSGIAGSLDELESDSHFCLDLSFQVSLLHTGYDIPLQRELRTGKKIANKEIGWCLGASLPLLKADNWKCKIQSA
B4: Gda1p: N335D (protein)
parent chain: MAPIFRNYRFAIGAFAVIMLILLIKTSSIGPPSIARTVTPNASIPKTPEDISILPVNDEPGYLQDSKTEQNYPELADAVKSQTSQTCSEEHKYVIMIDAGSTGSRVHIYKFDVCTSPPTLLDEKFDMLEPGLSSFDTDSVGAANSLDPLLKVAMNYVPIKARSCTPVAVKATAGLRLLGDAKSSKILSAVRDHLEKDYPFPVVEGDGVSIMGGDEEGVFAWITTNYLLGNIGANGPKLPTAAVFDLGGGSTQIVFEPTFPINEKMVDGEHKFDLKFGDENYTLYQFSHLGYGLKEGRNKVNSVLVENALKDGKILKGDNTKTHQLSSPCLPPKVNATNEKVTLESKETYTIDFIGPDEPSGAQCRFLTDEILNKDAQCQSPPCSFNGVHQPSLVRTFKESNDIYIFSYFYDRTRPLGMPLSFTLNELNDLARIVCKGEETWNSVFSGIAGSLDELESDSHFCLDLSFQVSLLHTGYDIPLQRELRTGKKIANKEIGWCLGASLPLLKADNWKCKIQSA

assay: DAPI staining after 24 h in sporulation medium; conditions: glycan lost; control: gda1Δ strain with wild-type GDA1

other: sporulation efficiency, no change:
B1, B2, B3, B4
